# Experimental data as given in IntAct's records for PubMed 29892012.
# B1: Abl interactor 2 (Homo sapiens), Q9NYB9 (parent)
# chain: MAELQMLLEEEIPGGRRALFDSYTNLERVADYCENNYIQSADKQRALEETKAYTTQSLASVAYLINTLANNVLQMLDIQASQLRRMESSINHISQTVDIHKEKVARREIGILTTNKNTSRTHKIIAPANLERPVRYIRKPIDYTILDDIGHGVKWLLRFKVSTQNMKMGGLPRTTPPTQKPPSPPMSGKGTLGRHSPYRTLEPVRPPVVPNDYVPSPTRNMAPSQQSPVRTASVNQRNRTYSSSGSSGGSHPSSRSSSRENSGSGSVGVPIAVPTPSPPSVFPAPAGSAGTPPLPATSASAPAPLVPATVPSSTAPNAAAGGAPNLADGFTSPTPPVVSSTPPTGHPVQFYSMNRPASRHTPPTIGGSLPYRRPPSITSQTSLQNQMNGGPFYSQNPVSDTPPPPPPVEEPVFDESPPPPPPPEDYEEEEAAVVEYSDPYAEEDPPWAPRSYLEKVVAIYDYTKDKEDELSFQEGAIIYVIKKNDDGWYEGVMNGVTGLFPGNYVESIMHYSE
# Variants of: B1
# Details: with ift20_human IFT20, Q8IY31
# Sequence of ift20_human IFT20, Q8IY31 (Q8IY31 whole entry): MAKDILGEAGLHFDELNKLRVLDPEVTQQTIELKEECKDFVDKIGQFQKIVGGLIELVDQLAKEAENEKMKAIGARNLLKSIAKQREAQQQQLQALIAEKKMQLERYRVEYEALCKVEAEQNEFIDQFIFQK
row,Variant,effect of a mutation on the interaction
1,E202K,with no effect

# Variants of: B1
# Details: with wipf1_human WIPF1, O43516
# Sequence of wipf1_human WIPF1, O43516 (O43516 whole entry): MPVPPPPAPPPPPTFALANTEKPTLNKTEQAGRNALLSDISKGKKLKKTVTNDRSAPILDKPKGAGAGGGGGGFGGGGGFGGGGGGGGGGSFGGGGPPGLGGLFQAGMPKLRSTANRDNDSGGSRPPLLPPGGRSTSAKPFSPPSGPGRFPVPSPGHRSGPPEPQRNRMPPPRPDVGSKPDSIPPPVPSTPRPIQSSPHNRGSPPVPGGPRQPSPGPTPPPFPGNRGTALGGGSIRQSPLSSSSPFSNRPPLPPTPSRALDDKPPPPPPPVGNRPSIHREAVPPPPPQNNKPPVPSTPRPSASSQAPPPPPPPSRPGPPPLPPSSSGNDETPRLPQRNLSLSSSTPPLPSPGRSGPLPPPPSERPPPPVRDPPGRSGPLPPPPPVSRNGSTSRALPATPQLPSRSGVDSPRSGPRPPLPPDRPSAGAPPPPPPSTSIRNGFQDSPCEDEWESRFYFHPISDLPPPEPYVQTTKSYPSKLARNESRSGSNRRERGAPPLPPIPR
row,Variant,effect of a mutation on the interaction
1,E202K,with no effect

# Variants of: B1
# Details: with k1h1_human KRT31, Q15323
row,Variant,effect of a mutation on the interaction
1,E202K,with no effect

# Variants of: B1
# Details: with aapk2_human PRKAA2, P54646
# Sequence of aapk2_human PRKAA2, P54646 (P54646 whole entry, looked up): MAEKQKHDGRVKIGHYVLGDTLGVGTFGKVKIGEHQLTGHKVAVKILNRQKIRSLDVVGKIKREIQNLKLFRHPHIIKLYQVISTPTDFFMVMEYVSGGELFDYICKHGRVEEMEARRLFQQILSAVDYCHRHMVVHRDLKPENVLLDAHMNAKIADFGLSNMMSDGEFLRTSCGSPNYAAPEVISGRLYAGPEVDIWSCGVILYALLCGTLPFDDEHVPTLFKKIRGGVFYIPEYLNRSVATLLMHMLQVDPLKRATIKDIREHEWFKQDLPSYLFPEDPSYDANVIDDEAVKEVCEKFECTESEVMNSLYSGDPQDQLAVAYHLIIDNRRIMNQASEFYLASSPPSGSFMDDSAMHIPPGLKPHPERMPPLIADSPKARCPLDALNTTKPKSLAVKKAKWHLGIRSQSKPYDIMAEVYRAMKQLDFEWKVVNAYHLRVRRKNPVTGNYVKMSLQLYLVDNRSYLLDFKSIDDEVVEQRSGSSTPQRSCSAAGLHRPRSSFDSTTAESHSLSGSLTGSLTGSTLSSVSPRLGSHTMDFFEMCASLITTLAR
row,Variant,effect of a mutation on the interaction
1,E202K,with no effect

# Variants of: B1
# Details: with skt_human KIAA1217, Q5T5P2
row,Variant,effect of a mutation on the interaction
1,E202K,with no effect

# Variants of: B1
# Details: with aapk1_human PRKAA1, Q13131
# Sequence of aapk1_human PRKAA1, Q13131 (Q13131 whole entry, looked up): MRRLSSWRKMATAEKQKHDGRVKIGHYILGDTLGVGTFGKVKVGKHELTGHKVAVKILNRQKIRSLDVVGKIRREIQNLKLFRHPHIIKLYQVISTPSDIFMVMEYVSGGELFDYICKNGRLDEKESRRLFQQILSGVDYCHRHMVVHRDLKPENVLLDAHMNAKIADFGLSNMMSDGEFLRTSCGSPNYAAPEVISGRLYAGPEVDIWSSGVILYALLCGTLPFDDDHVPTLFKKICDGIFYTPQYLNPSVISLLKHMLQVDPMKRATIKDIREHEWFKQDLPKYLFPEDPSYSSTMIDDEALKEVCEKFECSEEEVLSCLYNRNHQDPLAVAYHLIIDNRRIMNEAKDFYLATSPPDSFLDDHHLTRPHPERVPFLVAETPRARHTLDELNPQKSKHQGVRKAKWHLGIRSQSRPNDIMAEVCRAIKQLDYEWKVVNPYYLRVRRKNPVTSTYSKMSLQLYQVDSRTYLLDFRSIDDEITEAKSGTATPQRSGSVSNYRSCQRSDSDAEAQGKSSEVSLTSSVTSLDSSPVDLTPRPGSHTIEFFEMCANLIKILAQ
row,Variant,effect of a mutation on the interaction
1,E202K,with no effect

# Variants of: B1
# Details: with eif3h_human EIF3H
row,Variant,effect of a mutation on the interaction
1,E202K,with no effect

# Variants of: B1
# Details: with hnrpk_human HNRNPK
row,Variant,effect of a mutation on the interaction
1,E202K,with no effect

# Variants of: B1
# Details: with tri32_human TRIM32, Q13049
row,Variant,effect of a mutation on the interaction
1,E202K,with no effect

# Variants of: B1
# Details: with vasp_human VASP
row,Variant,effect of a mutation on the interaction
1,E202K,with no effect

# Variants of: B1
# Details: with ppif_human PPIF
row,Variant,effect of a mutation on the interaction
1,E202K,with no effect

# Variants of: B1
# Details: with KRT15, P19012
row,Variant,effect of a mutation on the interaction
1,E202K,with no effect

# Variants of: B1
# Details: with nup62_human NUP62, P37198
# Sequence of nup62_human NUP62, P37198 (P37198 whole entry): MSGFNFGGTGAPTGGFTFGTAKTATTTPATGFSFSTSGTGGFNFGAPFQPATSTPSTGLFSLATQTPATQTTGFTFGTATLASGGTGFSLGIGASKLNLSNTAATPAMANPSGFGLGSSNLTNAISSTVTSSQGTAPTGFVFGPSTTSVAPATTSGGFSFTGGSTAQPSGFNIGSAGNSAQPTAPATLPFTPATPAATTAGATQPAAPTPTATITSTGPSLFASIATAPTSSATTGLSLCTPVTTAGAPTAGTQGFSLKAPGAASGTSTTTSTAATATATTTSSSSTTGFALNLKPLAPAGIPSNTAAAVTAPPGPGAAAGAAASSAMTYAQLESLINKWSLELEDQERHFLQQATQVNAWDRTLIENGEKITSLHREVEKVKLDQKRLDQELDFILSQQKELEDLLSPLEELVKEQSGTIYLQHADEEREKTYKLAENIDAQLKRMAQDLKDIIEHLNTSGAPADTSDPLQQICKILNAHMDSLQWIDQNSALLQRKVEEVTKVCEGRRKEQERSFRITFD
row,Variant,effect of a mutation on the interaction
1,E202K,with no effect

# Variants of: B1
# Details: with KRT19, P08727
row,Variant,effect of a mutation on the interaction
1,E202K,with no effect

# Variants of: B1
# Details: with rhg32_human ARHGAP32, A7KAX9
row,Variant,effect of a mutation on the interaction
1,E202K,with no effect

# Variants of: B1
# Details: with nck2_human NCK2, O43639
# Sequence of nck2_human NCK2, O43639 (O43639 whole entry): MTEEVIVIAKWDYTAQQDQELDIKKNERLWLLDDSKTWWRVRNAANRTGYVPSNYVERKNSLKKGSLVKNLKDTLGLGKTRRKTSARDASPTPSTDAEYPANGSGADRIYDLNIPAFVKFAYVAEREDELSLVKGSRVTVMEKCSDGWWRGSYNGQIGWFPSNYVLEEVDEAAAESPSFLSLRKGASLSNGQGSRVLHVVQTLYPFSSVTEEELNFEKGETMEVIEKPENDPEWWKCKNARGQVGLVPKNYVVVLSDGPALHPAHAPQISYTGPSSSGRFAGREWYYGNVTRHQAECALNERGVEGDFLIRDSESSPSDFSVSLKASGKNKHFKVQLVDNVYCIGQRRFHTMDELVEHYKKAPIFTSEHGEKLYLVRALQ
row,Variant,effect of a mutation on the interaction
1,E202K,with no effect

# Variants of: B1
# Details: with hgs_human HGS
row,Variant,effect of a mutation on the interaction
1,E202K,with no effect

# Variants of: B1
# Details: with pcm1_human PCM1, Q15154
# Sequence of pcm1_human PCM1, Q15154 (Q15154 whole entry): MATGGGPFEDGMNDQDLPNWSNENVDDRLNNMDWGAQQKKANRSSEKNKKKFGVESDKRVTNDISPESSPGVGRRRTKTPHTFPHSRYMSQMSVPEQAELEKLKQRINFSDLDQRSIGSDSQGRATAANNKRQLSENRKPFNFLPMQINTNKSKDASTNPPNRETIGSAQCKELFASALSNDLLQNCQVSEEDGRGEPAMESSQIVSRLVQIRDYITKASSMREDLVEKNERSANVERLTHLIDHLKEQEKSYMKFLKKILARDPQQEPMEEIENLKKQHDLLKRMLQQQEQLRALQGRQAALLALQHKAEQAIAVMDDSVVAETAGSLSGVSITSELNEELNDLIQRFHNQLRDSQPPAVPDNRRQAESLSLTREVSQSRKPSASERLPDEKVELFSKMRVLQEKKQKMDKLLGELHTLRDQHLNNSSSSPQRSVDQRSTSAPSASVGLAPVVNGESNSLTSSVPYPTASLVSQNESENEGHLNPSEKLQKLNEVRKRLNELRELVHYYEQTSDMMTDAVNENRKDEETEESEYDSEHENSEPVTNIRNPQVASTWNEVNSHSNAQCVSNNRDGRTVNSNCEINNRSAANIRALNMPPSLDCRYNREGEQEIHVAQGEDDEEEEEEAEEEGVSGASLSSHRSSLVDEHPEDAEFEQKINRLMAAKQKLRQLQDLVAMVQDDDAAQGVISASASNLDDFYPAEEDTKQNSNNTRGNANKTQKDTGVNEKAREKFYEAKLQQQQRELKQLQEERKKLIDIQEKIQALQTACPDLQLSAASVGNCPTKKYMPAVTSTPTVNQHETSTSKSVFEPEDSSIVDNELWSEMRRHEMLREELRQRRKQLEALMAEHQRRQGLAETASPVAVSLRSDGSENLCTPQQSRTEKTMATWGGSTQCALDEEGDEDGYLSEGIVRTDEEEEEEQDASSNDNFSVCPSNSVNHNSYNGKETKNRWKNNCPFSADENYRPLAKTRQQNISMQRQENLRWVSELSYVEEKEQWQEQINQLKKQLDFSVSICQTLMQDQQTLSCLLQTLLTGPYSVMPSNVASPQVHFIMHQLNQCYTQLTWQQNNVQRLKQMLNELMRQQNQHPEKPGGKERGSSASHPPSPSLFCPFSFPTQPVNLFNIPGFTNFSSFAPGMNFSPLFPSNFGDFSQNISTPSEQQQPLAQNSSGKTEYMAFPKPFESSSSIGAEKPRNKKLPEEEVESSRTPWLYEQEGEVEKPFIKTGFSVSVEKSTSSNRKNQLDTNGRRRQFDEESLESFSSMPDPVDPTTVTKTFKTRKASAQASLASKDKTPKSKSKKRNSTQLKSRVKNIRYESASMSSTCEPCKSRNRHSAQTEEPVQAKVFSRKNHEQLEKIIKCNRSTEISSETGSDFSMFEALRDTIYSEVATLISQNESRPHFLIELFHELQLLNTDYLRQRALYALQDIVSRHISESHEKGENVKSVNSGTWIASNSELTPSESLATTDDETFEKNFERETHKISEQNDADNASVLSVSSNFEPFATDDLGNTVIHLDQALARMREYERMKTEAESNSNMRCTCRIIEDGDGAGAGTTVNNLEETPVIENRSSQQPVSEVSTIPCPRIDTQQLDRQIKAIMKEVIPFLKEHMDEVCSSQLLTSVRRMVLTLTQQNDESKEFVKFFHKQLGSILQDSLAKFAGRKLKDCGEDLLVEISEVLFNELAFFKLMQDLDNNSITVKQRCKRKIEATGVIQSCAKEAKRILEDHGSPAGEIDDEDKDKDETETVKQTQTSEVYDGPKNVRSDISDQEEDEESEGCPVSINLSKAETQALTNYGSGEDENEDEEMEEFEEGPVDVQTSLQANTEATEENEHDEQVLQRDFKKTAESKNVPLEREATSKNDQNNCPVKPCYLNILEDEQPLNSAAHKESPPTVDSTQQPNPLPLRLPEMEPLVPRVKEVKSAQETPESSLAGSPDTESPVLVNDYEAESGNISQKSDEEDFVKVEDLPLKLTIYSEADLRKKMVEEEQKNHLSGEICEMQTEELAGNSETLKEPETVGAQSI
row,Variant,effect of a mutation on the interaction
1,E202K,with no effect

# Variants of: B1
# Details: with stam2_human STAM2, O75886
row,Variant,effect of a mutation on the interaction
1,E202K,with no effect

# Variants of: B1
# Details: with vinc_human VCL
row,Variant,effect of a mutation on the interaction
1,E202K,disrupting interaction strength

# Variants of: B1
# Details: with crx_human CRX
row,Variant,effect of a mutation on the interaction
1,E202K,with no effect

# Variants of: B1
# Details: with mr1l1_human MRFAP1L1, Q96HT8
# Sequence of mr1l1_human MRFAP1L1, Q96HT8 (Q96HT8 whole entry): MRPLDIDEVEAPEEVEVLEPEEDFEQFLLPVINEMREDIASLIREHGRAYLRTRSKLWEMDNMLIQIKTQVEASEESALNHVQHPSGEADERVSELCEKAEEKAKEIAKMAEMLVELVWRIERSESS
row,Variant,effect of a mutation on the interaction
1,E202K,disrupting interaction strength

# Variants of: B1
# Details: with sdcb1_human SDCBP
row,Variant,effect of a mutation on the interaction
1,E202K,disrupting interaction strength

# Variants of: B1
# Details: with efs_human EFS
row,Variant,effect of a mutation on the interaction
1,E202K,with no effect
